Results as given in PMC9604545.
pKi: −log10 of the molar value.

What was measured:
[1] = biological target: human legumain, activated asparaginyl-specific endopeptidase (AEP) (human) (UniProt Q99538); assay: SEC; legumain incubated with hCE-K75A at a 1:4 molar ratio in 50 mM citric acid pH 4.0, 100 mM NaCl for 1 h at 37 °C, till complete RCL hydrolysis; Superdex 75 or S200 10/300 GL in 20 mM citric acid pH 4.0, 50 mM NaCl; peak fractions analysed by SDS-PAGE
[2] = biological target: human legumain, activated asparaginyl-specific endopeptidase (AEP) (human) (UniProt Q99538); assay: enzyme inhibition kinetics (Ki from initial velocities, Morrison equation); hCE-K75A at 1.5 nM to 1.6 µM mixed with 50 µM AAN-AMC in 20 mM citric acid pH 5.5, 50 mM NaCl, 0.05% Tween-20; reaction started with 2 nM legumain; 10 min at 37 °C

Chain of UniProt Q99538 (Q99538 18-323): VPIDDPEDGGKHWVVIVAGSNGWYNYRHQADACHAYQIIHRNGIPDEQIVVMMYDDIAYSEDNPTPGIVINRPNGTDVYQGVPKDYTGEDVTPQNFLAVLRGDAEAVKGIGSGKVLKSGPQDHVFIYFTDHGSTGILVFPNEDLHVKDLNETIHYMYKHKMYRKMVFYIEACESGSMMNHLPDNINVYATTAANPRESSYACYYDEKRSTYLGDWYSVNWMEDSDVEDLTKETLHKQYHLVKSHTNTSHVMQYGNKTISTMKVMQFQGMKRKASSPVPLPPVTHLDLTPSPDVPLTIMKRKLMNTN

Row | molar ratio of enzyme:inhibitor in the complex peak (enzyme:inhibitor) [1] | pKi [2] | Substance
1 | 1 |  | human cystatin M/E-K75A mutant, cleaved by legumain after P1-Asn39 on the reactive center loop (complex)
2 |  | 7.70 | human cystatin M/E-K75A mutant, intact (natural protein)
